The record followed here is publication PMC3702404 (Nature structural & molecular biology, 2013).

B3: PpsR (full-length) (natural protein, Rhodobacter sphaeroides, UniProt Q3J179 1-464, looked up)
chain: MLAGGSLPSLAPDLVRDLIATAADISLLVSQEGVVREVMANPHHPSFGQLSEWEGRPLEEVLTAESVAKFRLRSEGLEPGRGSVAVELNHIDPRSFEFPIRYILHRLPADRSILMLGRDLRPIAEVQQQLVAAQLAMERDYETQREMETRYRVVLDVSRDPMVLVSMSTGRIVDLNSAAGLLLGGVRQDLLGAAIAQEFEGRRRGEFMETMTNLAATESAAPVEVLARRSQKRLLVVPRVFRAAGERLLLCQIDPADATQPVGDELSENLARLYHEGVDGIVFSDADGTIRGANEAFLNMTDSSSLAAIRGRSIADFLARGSVDLRVLIDSVRRTGQLRLYATRLTTDFAGQIAAEISATWLDDRERPLLVLVVRDTSRADTMRRPVPATGVIDEPARNVMELVGNSTLKDIVAETTDVVEKMCIETALELTRNNRVAAAEMLSLSRQSLYVKLRKFGLLNKDE

The data set “crystal structure” concerns the molecule itself. Briefly: crystal structure.
The target in data set [1] is B3. Briefly: HDX-MS.
The target of data set [2] is B3. Briefly: MST.
For data set [3], the target named is B3. Briefly: native gel or EMSA.
Data set [4] deals with B3. Briefly: native gel or EMSA. The source holds these as a separate data set.
The data set “MST” deals with the molecule itself. Briefly: MST.

Values joined by “and” are separate entries in the source; they are usually repeats but may differ in a detail not shown here. Identical values can stand only once. Like-named read-outs stand apart in the source and are kept apart here.

B1: PpsR ΔHTH (domain or fragment, Rhodobacter sphaeroides)
chain: LAGGSLPSLAPDLVRDLIATAADISLLVSQEGVVREVMANPHHPSFGQLSEWEGRPLEEVLTAESVAKFRLRSEGLEPGRGSVAVELNHIDPRSFEFPIRYILHRLPADRSILMLGRDLRPIAEVQQQLVAAQLAMERDYETQREMETRYRVVLDVSRDPMVLVSMSTGRIVDLNSAAGLLLGGVRQDLLGAAIAQEFEGRRRGEFMETMTNLAATESAAPVEVLARRSQKRLLVVPRVFRAAGERLLLCQIDPADATQPVGDELSENLARLYHEGVDGIVFSDADGTIRGANEAFLNMTDSSSLAAIRGRSIADFLARGSVDLRVLIDSVRRTGQLRLYATRLTTDFAGQIAAEISATWLDDRERPLLVLVVRDTSR
Take B1: in “crystal structure”, the “stoichiometry N” value is 4 and 8.

B2: AppA Δ399 C20S (domain or fragment, Rhodobacter sphaeroides)
chain: HDLEADVTMTGSDLVSCSYRSLAAPDLTLRDLLDIVETSQAHNARAQLTGALFYSQGVFFQWLEGRPAAVAEVMTHIQRDRRHSNVEILAEEPIAKRRFAGWHMQLSCSEADMRSLGLAESRQIVTVGRSLVADNTNIFSFDRIAAVRRFLSDVCAARTLAPDTPVEADTFALYALTEAQAGRSGRAKAVARLSDLLSTDPLGRLTEVEELLRAHAPTAADFARLFEACAERLTRALAEDRISRMQVTLAYSALQMALRRIHHLPDPQKSVGAVLVAGVPGHKPILEAALAAEMLRAVGWSTSVVHPESVAALAARLKTSRTSTLVVAPSLLEGTEQEADTLRFVSALRARTDLPGLSILVGGRLAQLPPSKLKDSGADAGFAHLALLPAALARVA
Consider B2, for which the Kd with PpsR (full-length) [1] is roughly 1.5 µM; with PpsR (full-length) [2], 1.3 µM. Also, the EC50 worked out at 2.3 µM in the data set with PpsR (full-length) [3] and 1.4 µM with PpsR (full-length) [4].
B3 came in with a Kd in “MST” of 0.9 µM.
